# Marks after values point to notes of the source that are not given here.
# How the values were obtained:
# [1] = Whole-body autoradiography after injection of 25 μl or 50 μl complex solution into the prostate gland; format: in vivo, male SD rats
# Protocol: After one week acclimation, male SD rats were anesthetized with diethylether, and an about 2-cm midline incision was made in the lower abdomen of the pubis. After the prostate gland was exposed along with the bladder, 25 μl and 50 μl (each about 100 μCi) of the complex solution prepared in Example 2 were individually administered to the prostate gland using a syringe. After the rats were sacrificed 0.5 hr and 6 hrs after administration, cryosections were prepared, and whole-body autoradiography was carried out to measure radioactive concentrations in the liver, spleen, kidney, the end region of the femur, spine and administration sites. The measured radioactive concentrations (% ID/g) in various organs after injection of the complex solution are given in Table 1, below.
# Numerals of Table 1 indicate mean+standard deviation (n=3).
# [2] = Autoradiography, complex solution versus ^166Ho(NO3)3.5H2O solution not containing chitosan, injected into the prostate gland; format: in vivo, rats; conditions: for Radioactive concentration, Administration site / Radioactive concentration, End region of femur / Radioactive concentration, Liver / Radioactive concentration, Spine / Radioactive concentration, Kidney / Radioactive concentration, Spleen: 25 μl (about 100 μCi)
# Protocol: To investigate advantages of the ^166Ho-chitosan complex, autoradiography was carried out for a group administered with the complex solution and a control group administered with a ^166Ho(NO3)3.5H2O solution not containing chitosan. In the complex solution administration group, 25 μl of the complex solution was administered, which was equal to about 100 μCi. The control group was administered with a ^166Ho(NO3)3.5H2O solution not containing chitosan with the same dosage and radioactive concentration as in the complex solution administration group. This test was carried out according to the same method as in Experimental Example 1, and each test drug was administered to the prostate gland. After 0.5, 2, 6 and 24 hrs, rats were sacrificed and evaluated by autoradiography. The measured radioactive concentrations (% ID/g) in various organs after injection of the complex solution and the ^166Ho(NO3)3.5H2O solution are given in Table 2, below.
# [3] = Radioactive concentrations in collected organs and tissues by liquid scintillation counter after injection into the prostate gland; format: in vivo, SD rats; conditions: for Administered radioactivity retained in the prostate gland: until 144 hrs after administration
# Protocol: After the complex solution was administered, accurate radioactive concentrations were measured in various organs. 25 μl of the complex solution as a test drug were administered to the prostate gland in the abdominal region of SD rats, which was equal to about 100 μCi. After 0.5, 2, 6, 24, 72 and 144 hrs, the rats were anesthetized with diethylether and exsanguinated by incision of abdominal aorta. Various organs and tissues were collected, which included blood, plasma, brain, thymus, heart, lung, liver, kidney, adrenal gland, spleen, pancreas, testes, prostate gland (including an administration site), seminal vesicle, epididymis, bladder, skeletal muscle, bones, bone marrow, skin, carcass, stomach, small intestine, rectum and large intestine. The collected organs and tissues were weighed, sectioned and homogenized. The whole sample or the supernatant was assayed for radioactivity using a liquid scintillation counter. The measured radioactive concentrations in various organs and tissues according to the time are given in Table 3 (% ID/g) and Table 4 (% of dose).
substance,measurement,setting,value
Holmium-166 (^166Ho)-Chitosan Complex [complex solution],"Radioactive concentration, Administration site","[1]; 25 μl administration, 30 min",4258 ± 732.9 % ID/g
same,"Radioactive concentration, End region of femur","[1]; 25 μl administration, 30 min",0.05 ± 0.030 % ID/g
same,"Radioactive concentration, Spine","[1]; 25 μl administration, 30 min",0.02 ± 0.009 % ID/g
same,"Radioactive concentration, Administration site","[1]; 25 μl administration, 6 hrs",4478 ± 1212.4 % ID/g
same,"Radioactive concentration, End region of femur","[1]; 25 μl administration, 6 hrs",0.16 ± 0.047 % ID/g
same,"Radioactive concentration, Kidney","[1]; 25 μl administration, 6 hrs",0.01 ± 0.002 % ID/g
same,"Radioactive concentration, Liver","[1]; 25 μl administration, 6 hrs",0.04 ± 0.015 % ID/g
same,"Radioactive concentration, Spine","[1]; 25 μl administration, 6 hrs",0.04 ± 0.011 % ID/g
same,"Radioactive concentration, Spleen","[1]; 25 μl administration, 6 hrs",0.03 ± 0.007 % ID/g
same,"Radioactive concentration, Administration site","[1]; 50 μl administration, 30 min",3196 ± 212.5 % ID/g
same,"Radioactive concentration, End region of femur","[1]; 50 μl administration, 30 min",0.05 ± 0.030 % ID/g
same,"Radioactive concentration, Kidney","[1]; 50 μl administration, 30 min",0.02 ± 0.011 % ID/g
same,"Radioactive concentration, Liver","[1]; 50 μl administration, 30 min",0.01 ± 0.007 % ID/g
same,"Radioactive concentration, Spine","[1]; 50 μl administration, 30 min",0.02 ± 0.007 % ID/g
same,"Radioactive concentration, Administration site","[1]; 50 μl administration, 6 hrs",3054 ± 1873.0 % ID/g
same,"Radioactive concentration, End region of femur","[1]; 50 μl administration, 6 hrs",0.10 ± 0.065 % ID/g
same,"Radioactive concentration, Kidney","[1]; 50 μl administration, 6 hrs",0.01 ± 0.001 % ID/g
same,"Radioactive concentration, Liver","[1]; 50 μl administration, 6 hrs",0.03 ± 0.008 % ID/g
same,"Radioactive concentration, Spine","[1]; 50 μl administration, 6 hrs",0.04 ± 0.018 % ID/g
same,"Radioactive concentration, Spleen","[1]; 50 μl administration, 6 hrs",0.02 ± 0.014 % ID/g
same,Radioactivity detected in the administration site,[1]; 6 hrs after administration,over 90%
same,"Radioactivity in major organs including the liver, spleen and kidney",[1]; 6 hrs after administration,no radioactivity was detected
same,"Radioactivity in major organs including the liver, spleen and kidney","[1]; 6 hrs after administration, listed as radioisotope-chitosan complex",rarely detected
same,"Radioactive concentration, Administration site",[2]; 30 min,4149 ± 1563.2 % ID/g
same,"Radioactive concentration, End region of femur",[2]; 30 min,0.04 ± 0.015 % ID/g
same,"Radioactive concentration, Liver",[2]; 30 min,0.01 ± 0.004 % ID/g
same,"Radioactive concentration, Spine",[2]; 30 min,0.01 ± 0.002 % ID/g
same,"Radioactive concentration, Administration site",[2]; 2 hrs,3246 ± 764.0 % ID/g
same,"Radioactive concentration, End region of femur",[2]; 2 hrs,0.07 ± 0.013 % ID/g
same,"Radioactive concentration, Liver",[2]; 2 hrs,0.016 % ID/g
same,"Radioactive concentration, Spine",[2]; 2 hrs,0.02 ± 0.004 % ID/g
same,"Radioactive concentration, Administration site",[2]; 6 hrs,4815 ± 1177.4 % ID/g
same,"Radioactive concentration, End region of femur",[2]; 6 hrs,0.21 ± 0.101 % ID/g
same,"Radioactive concentration, Kidney",[2]; 6 hrs,0.02^b % ID/g
same,"Radioactive concentration, Liver",[2]; 6 hrs,0.04 ± 0.024 % ID/g
same,"Radioactive concentration, Spine",[2]; 6 hrs,0.05 ± 0.024 % ID/g
same,"Radioactive concentration, Spleen",[2]; 6 hrs,0.03 ± 0.027 % ID/g
same,"Radioactive concentration, Administration site",[2]; 24 hrs,3998 ± 705.1 % ID/g
same,"Radioactive concentration, End region of femur",[2]; 24 hrs,0.55 ± 0.324 % ID/g
same,"Radioactive concentration, Kidney",[2]; 24 hrs,0.03 ± 0.016 % ID/g
same,"Radioactive concentration, Liver",[2]; 24 hrs,0.04 ± 0.004 % ID/g
same,"Radioactive concentration, Spine",[2]; 24 hrs,0.14 ± 0.070 % ID/g
same,"Radioactive concentration, Spleen",[2]; 24 hrs,0.04 ± 0.010 % ID/g
same,"Radioactivity retained in the administration site, the prostate gland",[2]; 24 hrs after being administered,~90%
same,"Radioactive concentration, Blood",[3]; 30 min after injection,26 ± 10 % ID/g ×10^−4
same,"Radioactive concentration, Bones",[3]; 30 min after injection,71 ± 55 % ID/g ×10^−4
same,"Radioactive concentration, Plasma",[3]; 30 min after injection,44 ± 16 % ID/g ×10^−4
same,"Radioactive concentration, Blood",[3]; 2 hrs after injection,19 ± 9 % ID/g ×10^−4
same,"Radioactive concentration, Bones",[3]; 2 hrs after injection,189 ± 79 % ID/g ×10^−4
same,"Radioactive concentration, Plasma",[3]; 2 hrs after injection,32 ± 11 % ID/g ×10^−4
same,"Radioactive concentration, Bone marrow",[3]; 6 hrs after injection,17 % ID/g ×10^−4
same,"Radioactive concentration, Bones",[3]; 6 hrs after injection,185 ± 107 % ID/g ×10^−4
same,"Radioactive concentration, Bone marrow",[3]; 24 hrs after injection,32 ± 4 % ID/g ×10^−4
same,"Radioactive concentration, Bones",[3]; 24 hrs after injection,711 ± 413 % ID/g ×10^−4
same,"Radioactive concentration in other tissues (other than prostate gland, carcass, liver)",[3]; 72 hrs after administration,less than 0.1%
same,"Radioactive concentration, Bone marrow",[3]; 72 hrs after injection,109 ± 40 % ID/g ×10^−4
same,"Radioactive concentration, Bones",[3]; 72 hrs after injection,2343 ± 827 % ID/g ×10^−4
same,"Radioactive concentration, Bones",[3]; 144 hrs after injection,1708 ± 506 % ID/g ×10^−4
same,"Radioactivity in major organs (brain, thymus, heart, lung, adrenal gland, spleen) and adjacent organs (bladder, rectum, testes, epididymis)","[3]; rat, in vivo",rarely detected
same,Administered radioactivity retained in the prostate gland,[3],over 98%
same,Administered radioactivity retained in the prostate gland,[3]; listed as radioisotope-chitosan complex,more than 98%

# — patent US20060286032A1, “A radiosotope-chitosan complex for treatment of prostate cancer” (priority 2003, published 2006)
